The sequences below were run on Escherichia coli TOP10 (assay: shrunken log2 fold change of peptide-encoding DNA abundance (4.5 h post-induction vs induction); higher = less antimicrobial activity (less host growth inhibition)). Details: time post-induction: 4.5 h; library: site-saturation at positions 5, 18, 19, 20.
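Further: peptides expressed intracellularly from a pBAD plasmid library in pooled LB shake-flask culture, induced with 0.3% L-arabinose, DNA abundance read by NGS, three biological replicates, DESeq2 with apeglm shrinkage.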

Sequence	shrunken log2 fold change
RRIRGRPPRLPRPRPRPILTPRP	0.351
RRIRPRPPRLPRPRPRPVNIPRP	-0.226
RRIRSRPPRLPRPRPRPSTMPRP	-0.455
RRIRVRPPRLPRPRPRPKDGPRP	0.0237
RRIRARPPRLPRPRPRPALMPRP	0.534
RRIRMRPPRLPRPRPRPGECPRP	-0.0159
RRIRERPPRLPRPRPRPEHQPRP	0.0588
RRIRFRPPRLPRPRPRPRIEPRP	-0.0896
RRIRRRPPRLPRPRPRPKVTPRP	-0.131
RRIRDRPPRLPRPRPRPNKWPRP	-0.0744
RRIRLRPPRLPRPRPRPEEKPRP	0.0262
RRIRRRPPRLPRPRPRPWIFPRP	0.0818
RRIRPRPPRLPRPRPRPHFCPRP	-0.353
RRIRNRPPRLPRPRPRPYWPPRP	-0.199
RRIRERPPRLPRPRPRPKCVPRP	0.0364
RRIRWRPPRLPRPRPRPPWGPRP	0.483
RRIRERPPRLPRPRPRPPMAPRP	0.149
RRIRWRPPRLPRPRPRPYTEPRP	-0.118
RRIRTRPPRLPRPRPRPEHSPRP	-0.237
RRIRTRPPRLPRPRPRPCFHPRP	-0.638

Sequence	shrunken log2 fold change
RRIRFRPPRLPRPRPRPEMVPRP	-0.143
RRIRQRPPRLPRPRPRPWPDPRP	-0.0854
RRIRQRPPRLPRPRPRPQPKPRP	0.0658
RRIRWRPPRLPRPRPRPNENPRP	-0.0342
RRIRKRPPRLPRPRPRPWRCPRP	-0.0463
RRIRKRPPRLPRPRPRPMNCPRP	-0.014
RRIRRRPPRLPRPRPRPATPPRP	0.783
RRIRFRPPRLPRPRPRPLDGPRP	-0.143
RRIRRRPPRLPRPRPRPTDNPRP	0.277
RRIRARPPRLPRPRPRPWITPRP	-0.0939
RRIRCRPPRLPRPRPRPAHCPRP	1.77
RRIRFRPPRLPRPRPRPYPLPRP	-0.604
RRIRSRPPRLPRPRPRPCMDPRP	-0.0717
RRIRSRPPRLPRPRPRPFQYPRP	-0.177
RRIRGRPPRLPRPRPRPCDRPRP	0.00287
RRIRLRPPRLPRPRPRPFGWPRP	0.0538
RRIRVRPPRLPRPRPRPDCFPRP	0.0303
RRIRHRPPRLPRPRPRPVTPPRP	-0.00938
RRIRARPPRLPRPRPRPPGVPRP	0.158
RRIRNRPPRLPRPRPRPMNVPRP	-0.00101

Sequence	shrunken log2 fold change
RRIRWRPPRLPRPRPRPNLIPRP	0.0144
RRIRPRPPRLPRPRPRPRCYPRP	0.0458
RRIRQRPPRLPRPRPRPAMLPRP	0.0266
RRIRSRPPRLPRPRPRPSKTPRP	-0.159
RRIRTRPPRLPRPRPRPTKKPRP	0.0786
RRIRARPPRLPRPRPRPTNCPRP	0.269
RRIRGRPPRLPRPRPRPNWYPRP	-0.0124
RRIRYRPPRLPRPRPRPKDYPRP	-0.787
RRIRPRPPRLPRPRPRPKPWPRP	0.227
RRIRNRPPRLPRPRPRPFQLPRP	-0.228
RRIRMRPPRLPRPRPRPDQPPRP	-0.0102
RRIRFRPPRLPRPRPRPLGSPRP	0.192
RRIRIRPPRLPRPRPRPYTTPRP	-0.0313
RRIRFRPPRLPRPRPRPWVTPRP	-0.0635
RRIRMRPPRLPRPRPRPHTPPRP	0.137
RRIRLRPPRLPRPRPRPPKAPRP	0.025
RRIRYRPPRLPRPRPRPAVIPRP	-0.0517
RRIRMRPPRLPRPRPRPHPCPRP	0.046
RRIRYRPPRLPRPRPRPLFNPRP	-1.24
RRIRTRPPRLPRPRPRPKECPRP	-0.503

Source: the supplement of paper PMC9112550, “Optimization of the antimicrobial peptide Bac7 by deep mutational scanning” (BMC Biology, 2022)
